B1: POU domain class 2-associating factor 1 (Homo sapiens), Q16633 (parent)
chain: MLWQKPTAPEQAPAPARPYQGVRVKEPVKELLRRKRGHASSGAAPAPTAVVLPHQPLATYTTVGPSCLDMEGSVSAVTEEAALCAGWLSQPTPATLQPLAPWTPYTEYVPHEAVSCPYSADMYVQPVCPSYTVVGPSSVLTYASPPLITNVTTRSSATPAVGPPLEGPEHQAPLTYFPWPQPLSTLPTSTLQYQPPAPALPGPQFVQLPISIPEPVLQDMEDPRRAASSLTIDKLLLEEEDSDAYALNHTLSVEGF
partner: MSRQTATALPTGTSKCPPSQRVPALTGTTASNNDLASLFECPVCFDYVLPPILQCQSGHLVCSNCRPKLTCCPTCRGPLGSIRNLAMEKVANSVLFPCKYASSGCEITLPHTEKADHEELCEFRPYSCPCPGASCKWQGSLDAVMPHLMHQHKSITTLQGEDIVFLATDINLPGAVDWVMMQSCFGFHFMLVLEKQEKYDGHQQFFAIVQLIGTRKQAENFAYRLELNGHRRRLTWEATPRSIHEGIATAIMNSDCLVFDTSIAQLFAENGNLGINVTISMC

Variants of: B1
Conditions: with siah1_human SIAH1, Q8IUQ4

| Variant | effect of a mutation on the interaction |
| --- | --- |
| MLWQKPTAPEQAPAPARPYQGVRVKEPVKELLRRKRGHASSGAAPAPTAVELPHQPLATYTTVGPSCLDMEGSVSAVTEEAALCAGWLSQPTPATLQPLAPWTPYTEYVPHEAVSCPYSADMYVQPVCPSYTVVGPSSVLTYASPPLITNVTTRSSATPAVGPPLEGPEHQAPLTYFPWPQPLSTLPTSTLQYQPPAPALPGPQFVQLPISIPEPVLQDMEDPRRAASSLTIDKLLLEEEDSDAYALNHTLSVEGF [V51E] | disrupting interaction |
